The values below come from US20050187156A1 (Stanford University, published 2005).

The target of this assay is T1, GST-εRACK (human εRACK expressed as a GST fusion protein) (human, UniProt P35606 1-906).
T1 construct: 10 ng was immobilized on Glutathione-Sepharose 4B beads; also called immobilized GST-εRACK; not shown: glutathione S-transferase (GST) tag of baculovirus vector PacG3X (BD Biosciences)
T1 sequence (looked up): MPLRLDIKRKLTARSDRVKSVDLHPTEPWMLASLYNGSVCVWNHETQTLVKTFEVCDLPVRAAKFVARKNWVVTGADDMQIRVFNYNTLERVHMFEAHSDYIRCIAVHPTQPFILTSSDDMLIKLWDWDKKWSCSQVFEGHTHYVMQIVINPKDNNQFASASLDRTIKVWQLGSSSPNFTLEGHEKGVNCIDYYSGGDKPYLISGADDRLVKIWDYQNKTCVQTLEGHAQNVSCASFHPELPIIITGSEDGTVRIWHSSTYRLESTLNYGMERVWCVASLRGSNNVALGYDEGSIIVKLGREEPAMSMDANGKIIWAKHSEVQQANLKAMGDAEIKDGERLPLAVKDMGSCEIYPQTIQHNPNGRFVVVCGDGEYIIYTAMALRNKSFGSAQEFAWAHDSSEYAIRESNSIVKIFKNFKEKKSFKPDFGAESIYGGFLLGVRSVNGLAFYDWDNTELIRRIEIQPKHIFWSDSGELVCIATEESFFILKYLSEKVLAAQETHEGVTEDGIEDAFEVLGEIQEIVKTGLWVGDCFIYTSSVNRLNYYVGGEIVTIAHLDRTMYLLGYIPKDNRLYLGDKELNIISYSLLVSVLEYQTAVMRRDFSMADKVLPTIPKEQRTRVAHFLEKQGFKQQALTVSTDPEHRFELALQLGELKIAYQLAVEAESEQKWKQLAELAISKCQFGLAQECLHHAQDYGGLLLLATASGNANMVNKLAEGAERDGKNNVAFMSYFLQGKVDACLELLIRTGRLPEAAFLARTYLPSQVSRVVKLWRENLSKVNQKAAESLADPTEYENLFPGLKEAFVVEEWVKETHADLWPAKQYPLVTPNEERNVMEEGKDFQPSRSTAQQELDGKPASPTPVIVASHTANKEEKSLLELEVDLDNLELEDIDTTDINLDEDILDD
The assay can be described thus: pull-down of insect cell-expressed εPKC on GST-εRACK immobilized on glutathione-Sepharose beads, no phospholipid activators, Western blot with anti-εPKC V5. The method, then:
RACKs bind active PKC [Mochly-Rosen, D. & Gordon, A. S., FASEB J. 12:35-42 (1998); Mochly-Rosen, D. et al., Molec. Biol. Cell. (formerly Cell Regulation) 1:693-706 (1990).
Insect cells expressing either εPKC or GST-εRACK were lysed as described in Example 4. GST-εRACK, 10 ng was immobilized on Glutathion-Sepharose 4B beads (Amersham-Pharmacia), and washed thoroughly with wash buffer (20 mM Tris-HCl pH 7.5, 2 mM EDTA, 100 mM NaCl, 12 mM pME, and 0.1% TritonX-100). Immobilized GST-εRACK was then incubated with the soluble fraction of insect cell lysates containing 100 ng Wt, D(86)A, or D(86)N εPKC protein, in the presence or absence of phospholipid activators (PL) (phosphatidylserine 12 μg/reaction and, Sn-1,2 dioleoylglycerol 400 ng/reaction) for 1 hour at 4° C. Upon thorough washing with wash buffer, bound proteins were eluted in SDS-PAGE sample buffer and proteins separated on 8% SDS-PAGE gels. The amount of εPKC interacting with εRACK was determined by Western blot probing for εPKC with anti εPKC-V5 antibodies. Blots were then re-probed with ant-GST (Santa Cruz) to verify that the same amount of GST-εRACK was present in each binding assay. All other methods for this Example were performed as described, for example, in Example 4.

B1: D(86)A εPKC mutant (enzyme, human, UniProt Q02156 1-737, looked up)
chain: MVVFNGLLKIKICEAVSLKPTAWSLRHAVGPRPATFLLDPYIALNVDDSRIGQTATKQKTNSPAWHDEFVTDVCNGRKIELAVFHAAPIGYDDFVANCTIQFEELLQNGSRHFEDWIDLEPEGRVYVIIDLSGSSGEAPKDNEERVFRERMRPRKRQGAVRRRVHQVNGHKFMATYLRQPTYCSHCRDFIWGVIGKQGYQCQVCTCVVHKRCHELIITKCAGLKKQETPDQVGSQRFSVNMPHKFGIHNYKVPTFCDHCGSLLWGLLRQGLQCKVCKMNVHRRCETNVAPNCGVDARGIAKVLADLGVTPDKITNSGQRRKKLIAGAESPQPASGGSPSEEDRSKSAPTSPCDQEIKELENNIRKALSFDNRGEEHRAASSPDGQLMSPGENGEVRQGQAKRLGLDEFNFIKVLGKGSFGKVMLAELKGKDEVYAVKVLKKDVILQDDDVDCTMTEKRILALARKHPYLTQLYCCFQTKDRLFFVMEYVNGGDLMFQIQRSRKFDEPRSRFYAAEVTSALMFLHQHGVIYRDLKLDNILLDAEGHCKLADFGMCKEGILNGVTTTTFCGTPDYIAPEILQELEYGPSVDWWALGVLMYEMMAGQPPFEADNEDDLFESILHDDVLYPVWLSKEAVSILKAFMTKNPHKRLGCVASQNGEDAIKQHPFFKEIDWVLLEQKKIKPPFKPRIKTKRDVNNFDQDFTREEPVLTLVDEAIVKQINQEEFKGFSYFGEDLMP
notes: Used as the soluble fraction of a Hi5 insect cell lysate containing 100 ng εPKC protein; also called D(86)A ΨεRACK mutant; A mutant
Consider B1, for which the “fold binding relative to D(86)N or Wt εPKC (absence of PL activators)” value is no less than 2 fold.
